Measurements published in US7994123B2, “Hybrid proteins with ErbB4 extracellular domain and neuregulin heparin-binding domain for targeting” (Wayne State University, priority 2004, dated 2011).

Assays:
Heparin column binding = settings: conditioned media; anti-HA western blot of flow through and elution
Procedure: (§1) 4. Cell culture: The L6 cells were cultured in DMEM supplemented with 10% fetal calf serum, 1 mM L-glutamine and 1000 U/ml penicillin/streptomycin at 37° C. in 10% CO2 incubator. The HEK293 cells were cultured in DMEM with 10% fetal calf serum, 1 mM L-glutamine, 2 mM sodium pyruvate, 0.1 mM non-essential amino acids, 1000 U/ml penicillin/streptomycin at 37° C. in 10% CO2 incubator. The selective antibiotics Geneticin 200 μg/ml (Gibco-Invitrogen) was added to the cell cultures of stably transfected HEK293 cells harboring the NRG antagonists. 5. Stable expression of NRG antagonists in HEK293 cells: HEK293 cells were cultured in […] flasks to 80% confluence and transfected with the four NRG antagonist constructs using lipofectamine 2000 (Invitrogen Life Science) as instructed. The antibiotic Geneticin was then added at a concentration of 400 μg/ml to the transfected HEK293 cells to select the positive antagonist transfected cells. After three weeks of Geneticin selection, the transfected HEK293 cells were diluted and plated in 96 well plates to yield single positive clones. The single clones that expressed the highest levels of antagonists (confirmed by western blot using HA antibody) were then maintained in culture media with 200 μg/ml Geneticin. Optimem I (Gibco-Invitrogen) was applied to the stably transfected NRG antagonist cell lines at 37° C. in 10% CO2 incubator for 2 days. The conditioned Optimem I media was then used in the following experiments. 6. Heparin column binding: The conditioned media containing the four NRG antagonists was passed through the heparin column to allow binding to heparin. The excessive unbound antagonist proteins were washed off by 1×PBS twice. The antagonist proteins were then eluted by increasing concentration of NaCl (0.25, 0.3, 0.4, 0.5, 0.6 and 1M). The flow through solution from each step was examined by anti-HA western blots, as described later, to determine heparin binding ability of the antagonists. 7. Purification and quantitation of recombinant proteins: The NRG antagonists were purified by anti-HA affinity matrix (3F10) (rat mAb) according to manufacturer's instructions. Briefly, the column was equilibrated with buffer containing 20 mM Tris pH 7.5, 0.1 M NaCl, 0.1 M EDTA, and each antagonist in conditioned medium was applied individually to the anti-HA affinity matrix. Excess unbound antagonist proteins were washed with 20 volume of washing buffer (20 mM Tris pH 7.5, 0.1 M NaCl, 0.1 M EDTA and 0.05% Tween 20). The bound NRG antagonists were eluted with 0.1 M glycine (pH 2). The purified recombinant protein was then quantified using a BioRad Protein Assay kit (Bio-Rad, Hercules, Calif.) 8. Silver stain: Both the conditioned media and the purified NRG antagonists were resolved on 7.5% reducing SDS-polyacrylamide gels. The gel was fixed with 30% ethanol and 10% acetic acid for 30 min. 10% ethanol and ultrapure water were used subsequently to wash the gel before staining with SilverSNAP stain solution with enhancer for 30 min. The gel was then developed using SilverSNAP developer solution with enhancer. 5% acetic acid was used to stop the reaction when the desired band intensity was reached. The gel was dried on filter paper using a vacuum gel dyer. 9. […] Positive control L6 cells were treated with 50 pM NRG alone. L6 cell lysates were prepared and run on 5% SDS-PAGE gel. Western blots of erbB receptor phosphorylation were performed using 4G10 antibody. 10. Western blot: Western blots were performed on both conditioned NRG antagonist media and the antagonist-treated L6 cells. The antagonist proteins and the L6 cells were solubilized in SDS sample buffer and boiled for 5 min as described above (see also Li et al., supra). The NRG antagonists run on 7.5% SDS-PAGE gel were detected by anti-HA mAb HA.11. Phosphotyrosine mAb 4G10 was used to detect phosphorylated erbB receptor (p185) in L6 cell western blot analysis following resolution on overrun 5% reducing SDS-polyacrylamide gels. […]

[1] = system: erbB receptor phosphorylation (p185) in L6 cells; test: L6 assay: block of NRG-induced erbB receptor phosphorylation (p185); format: cell-based; settings: preincubated with L6 muscle cells one hour, thoroughly washed before adding recombinant neuregulin
Procedure: as §1

[2] = system: MCF10CA1 human breast cancer cells; test: Cell proliferation assay, MCF10CA1; format: cell-based
Procedure: (§2) Cell proliferation assays: All three breast epithelial cell lines were plated at 5000 cells/well in 48 well plates in regular MCF10A/AT or MCF10CA1 media. After incubation for 3 days, 1 nM NRG in MCF10A/AT media or just MCF10A/AT media alone were applied to the cells for another 24 hours followed by washing them with culture media and then counting cell numbers using an hemocytometer on the 4th, 5th, 6th, 7th and 8th day.
(§3) After 2 days, the Optimem I conditioned media was concentrated by Centricon at 4° C. 40 μl of IgB4 conditioned media or 10 μM of tyrosine kinase inhibitor AG1478 were combined with […] 1 nM NRG in MCF10A/AT media for 15 min at room temperature before being added to MCF10CA1 cells for 30 min treatment. […] The amount of each antagonist was determined empirically based on its ability to block NRG-induced activation of L6 cells.

[3] = system: Mat BIII rat breast cancer cells; test: Rat syngeneic breast cancer spontaneous metastasis model; format: in vivo; settings: female Fisher rats, 14-day osmotic mini-pump, about 4 mg/kg/day
Procedure: The rat syngeneic breast cancer system (Xing et al., Int. J. Cancer 67:423-429 (1996) employs Mat BIII rat breast cancer cells. Tumor cells, for example about 10^6 in 0.1 ml PBS, are inoculated into the mammary fat pads of female Fisher rats. At the time of inoculation, a 14-day Alza osmotic mini-pump is implanted intraperitoneally to dispense the test compound. The compound is dissolved in PBS (e.g., 200 mM stock), sterile filtered and placed in the minipump to achieve a release rate of about 4 mg/kg/day. Control animals receive vehicle (PBS) alone or a vehicle control peptide in the minipump. Animals are sacrificed at about day 14. In the rats treated with the active compounds of the present invention, significant reductions in the size of the primary tumor and in the number of metastases in the spleen, lungs, liver, kidney and lymph nodes (enumerated as discrete foci) are observed. Histological and immunohistochemical analysis reveal increased necrosis and signs of apoptosis in tumors in treated animals. Large necrotic areas are seen in tumor regions lacking neovascularization. […] In contrast, treatment with control polypeptides fails to cause a significant change in tumor size or metastasis.

[4] = system: erbB receptor phosphorylation (p185) in MCF10CA1 cells; test: p185 receptor phosphorylation western blot, MCF10CA1; format: cell-based, human; settings: exogenous NRG, 30 min; above high basal levels
Procedure: (§4) Western blots and L6 muscle assays: P185 receptor phosphorylation of the three cell lines was measured by phosphotyrosine western blots after NRG treatment for 30 min on 3 day old cultures as described in WO 03/012045 and Li Q & Loeb J A (2001) J Biol Chem; 276:38068-75. […] The media was discarded and phosphotyrosine western blots were performed as above. The membranes were stripped and reprobed with polyclonal rabbit erbB2 for the detection of overall erbB2 protein that was used for quantitation.
as §3

MCF10A cells = test: Cell proliferation assay, MCF10A; format: cell-based, human; settings: 1 nM NRG for 24 hours, three days after plating
Procedure: as §2

MCF10AT cells = test: Cell proliferation assay, MCF10AT; format: cell-based, human; settings: 1 nM NRG for 24 hours, three days after plating
Procedure: as §2

[5] = system: erbB receptor phosphorylation (p185) in MCF10A cells; test: p185 receptor phosphorylation western blot, MCF10A; format: cell-based, human; settings: exogenous NRG, 30 min
Procedure: as §4

[6] = system: erbB receptor phosphorylation (p185) in MCF10AT cells; test: p185 receptor phosphorylation western blot, MCF10AT; format: cell-based, human; settings: exogenous NRG, 30 min
Procedure: as §4

[7] = system: eight NRG-response proliferation genes in MCF10A cells; test: Northern blot of proliferation genes, MCF10A; format: cell-based, human; settings: 1 nM NRG for 24 hours
Procedure: (§5) RNA preparation and Northern blotting: MCF10A, MCF10AT and MCFCA1 cells were cultured in 25 cm flasks to approximately 60% confluence. The cells were treated with 1 nM NRG in MCF10A/AT media for 24 hours. The cells were then washed with phosphate buffered saline (PBS) once and harvested. Total RNA was extracted from cells using Ultraspec (Biotecx Laboratories, Inc.), “cleaned up” by Rneasy® purification kit (Qiagen, Valencia, Calif.), and subsequently to quantified using a fluorescent dye binding method called Ribogreen (Molecular Probes, Eugene, Oreg.). Northern blots were performed as described previously (Li & Loeb, supra) on RNA extracted from the 3 breast epithelial cell lines after NRG treatment in MCF10A/AT media verses control MCF10A/AT media. Probes were generated by PCR and then prepared by random priming to full-length cDNA clones from the clones provided by Alphagene Inc as described. The membranes were reprobed with a ^32P-labeled GAPDH probe for normalization.

[8] = system: eight NRG-response proliferation genes in MCF10AT cells; test: Northern blot of proliferation genes, MCF10AT; format: cell-based, human; settings: 1 nM NRG for 24 hours
Procedure: as §5

[9] = system: eight NRG-response proliferation genes in MCF10CA1 cells; test: Northern blot of proliferation genes, MCF10CA1; format: cell-based, human; settings: 1 nM NRG for 24 hours
Procedure: as §5

B1: GlyB4: purified HBD-S-B4 fusion with HIS tag instead of HA tag (protein)
chain: QSGYKKKERGSGKKPESAAGSQSPALPPRLKEMKSQESAAGSKLVLRCETSSEYSSLRFKWFKPNGNELNRKNKQNIKIQKKPGKSELRINKASLADSGEYMCKVISKLGNDSASANITIVESNEIITGMPASTEGAYVSSESPIRISVSTEGANTSSSTSTSTTGTSGTQSVCAGTENKLSSLSDLEQQYRALRKYYENCEVVMGNLEITSIEHNRDLSFLRSVREVTGYVLVALNQFRYLPLENLRIIRGTKLYEDRYALAIFLNYRKDGNFGLQELGLKNLTEILNGGVYVDQNKFLCYADTIHWQDIVRNPWPSNLTLVSTNGSSGCGRCHKSCTGRCWGPTENHCQTLTRTVCAEQCDGRCYGPYVSDCCHRECAGGCSGPKDTDCFACMNFNDSGACVTQCPQTFVYNPTTFQLEHNFNAKYTYGAFCVKKCPHNFVVDSSSCVRACPSSKMEVEENGIKMCKPCTDICPKACDGIGTGSLMSAQTVDSSNIDKFINCTKINGNLIFLVTGIHGDPYNAIEAIDPEKLNVFRTVREITGFLNIQSWPPNMTDFSVFSNLVTIGGRVLYSGLSLLILKQQGITSLQFQSLKEISAGNIYITDNSNLCYYHTINWTTLFSTINQRIVIRDNRKAENCTAEGMVCNHLCSSDGCWGPGPDQCLSCRRFSRGRICIESCNLYDGEFREFENGSICVECDPQCEKMEDGLLTCHGPGPDNCTKCSHFKDGPNCVEKCPDGLQGANSFIFKYADPDRECHPCHPNCTQGCNGPTSHDCIYYPWTGHSTLPQHAKN
modifications: left off: small tags and cut ends
Heparin column binding
  binding to heparin column: binds to heparin
[1]
  sustained blockade of neuregulin signaling (p185 phosphorylation): complete and sustained blockade of neuregulin signaling
[2]; 1 nM GlyB4 versus Herceptin 100 μg/ml
  effectiveness at blocking proliferation compared with Herceptin: comparably, if not slightly more, effective
[2]; 1 nM, treated on days 0, 3 and 6, compared to control cells or cells treated with B4
  blocking of cancer cell growth: significantly more potent at blocking cancer cell growth
[3]
  potency relative to control polypeptides: at least two-fold more potent than the relevant control polypeptides

B2: NRG: recombinant neuregulin β1 IG-EGF form provided by Amgen (protein)
chain: KKKERGSGKKPESAAGSQSPALPPRLKEMKSQESAAGSKLVLRCETSSEYSSLRFKWFKNGNELNRKNKPQNIKIQKKPGKSELRINKASLADSGEYMCKVISKLGNDSASANITIVESNEIITGMPASTEGAYVSSESPIRISVSTEGANTSSSTSTSTTGTSHLVKCAEKEKTFCVNGGECFMVKDLSNPSRYLCKCQPGFTGARCTENVPMKVQNQEKAEELYQKRVLTITGICIALLVVGIMCVVAYCKTKKQRKKLHD
[2]; 1 nM NRG for 24 hours, three days after plating
  effect on growth rate of MCF10CA1 cells: increased the initial growth rate
[4]
  induction of erbB receptor phosphorylation (p185), MCF10CA1: only a small incremental amount of phosphorylation
MCF10A cells
  effect on growth rate of MCF10A cells: sustained reduction in the growth rate
MCF10AT cells
  effect on growth rate of MCF10AT cells: only a small, initial reduction in growth rate
[5]
  induction of erbB receptor phosphorylation (p185), MCF10A: induced strong erbB receptor phosphorylation
[6]
  induction of erbB receptor phosphorylation (p185), MCF10AT: induced strong erbB receptor phosphorylation
[7]
  regulation of 8 NRG-response genes, MCF10A: rapid down-regulation of all 8 of these genes
[8]
  regulation of 8 NRG-response genes, MCF10AT: rapid down-regulation of all 8 of these genes
[9]
  regulation of 8 NRG-response genes, MCF10CA1: very little down-regulation of only a few of these genes
